Results on 22 sequences are retold here after the DeepSol protein solubility set.

The nature of this data set: soluble on expression in E. coli; label from the status in PepcDB or PDB records.
Turning to “MKKIDSAVAVEPAATVPKGRKNNPEKTREDILKAAVAEFVAHGLTGARVDAIAERTKTSKRMIYYYFGSKEQLYVEVLEKLYGAIRNTESELNLGELEPVEAIHRVVEFTFDHHDSNVDFVRIVCIENIHNGENVKQSDTIQAKSQNIIRALDGILRRGEASGLFRDGVHPVDLHLMISSFCFYRISNRHTFSEIFQIELWSEEVKQRHKAMICDAVLRYLKR”, the “soluble on expression in E. coli” value is listed as “not soluble”.
The result for “MTSISSEYKLPEKTNTVSTNNSSLGKDEFLKILMTQVQNQDPLNPIDDKEFISQMATFSSLEQMMNLNTTMTQFVENQDPFTTYVDWMGKEVSWTDGKSATDKTGTVSSVKHFKGNYYLVLDDGTEISPANVMSVGQSSKLEHHHHHH” reads “soluble”; that for “MMPTEYPATAEESVDVITDALLTASRLLVAISAHSIAQVDENITIPQFRTLVILSNHGPINLATLATLLGVQPSATGRMVDRLVGAELIDRLPHPTSRRELLAALTKRGRDVVRQVTEHRRTEIARIVEQMAPAERHGLVRALTAFTEAGGEPDARYEIE”, “soluble”.
The result for “MSRAEFIRFLQVLEEDLPFRALFQEADPEEILKLADQHGFIFSDEIKGRFLNRWAGVYFCPFANDVGRLCPKMVPEGFSTLLHYSQTTCTKEDKVERFDFRAGGYYEGVKAVTG” reads “not soluble”; that for “QIQLVQSGPELKKPGETVRISCKASDYSFMTSGMQWVQQMPGKGLKWIGWLNTQSGVPEYAEDFKGRFAFSLETSATTAYLQINNLKNEDTATYFCATWGGNSAYWGQGTTLTVSSAKTTPPSVYPLAPGSAAQTNSMVTLGCLVKGYFPEPVTVTWNSGSLSSGVHTFPAVLQSDLYTLSSSVTVPSSTWPSETVTCNVAHPASSTKVDKKIVPRDC”, “soluble”; that for “MGSDKIHHHHHHALICNSAVTTTASTLYSWHQVRNTLAIMFNKRHIERHQLPCVLKVFNRFTGQEIGQLGNASENGLMVISQLPVLVGPDYELQLRMPLPGGGHQFVNLTASCLWCREDQTPGHYDSGFMLLQSPREYDDFVRSLRDYFSFRPANAPV”, “not soluble”.
As to “MSLKLTVVGLGYIGLPTSIMFAKHGVDVLGVDINQQTIDKLQSGQISIEEPGLQEVYEEVLSSGKLKVSTTPEASDVFIIAVPTPNNDDQYRSCDISLVMRALDSILPFLEKGNTIIVESTIAPKTMDDFVKPVIENLGFTIGEDICLVHCPERVLPGKILEELVHNNRIIGGVTKACIEAGKYVYRTFVQGEMIETDARTAEMSKLMENTYRDVNIALANELTKICNNLNINVLDVIEMANKHPRVNIHQPGPGVGGHCLAVDPYFIIAKDPENAKLIQTGREINNSMPAYVVDTTKQIIKALSGNKVTVFGLTYKGDVDDIRESPAFDIYELLNQEPDIEVCAYDPHVELDFVEHDMSHAVKDASLVLILSDHSEFKNLSDSHFDKMKHKVIFDTKNVVKSSFEDVSYYNYGNIFNFIDKEGHHHHHH”, the “soluble on expression in E. coli” value is given as “soluble”.
The result for “MGSDKIHHHHHHMSEEAFDAIIVGAGLAGCVAAYVLAKEGADVLVIERGNYAGSKNMTGGRLYAHSLERIIPGFAKEAPIERKVTKEKVTFLTDDTGVTLDYHNGRDQSPLQESYTLLRGEFDQWLMGKAEEVGAQFITGIRVDEILTQDGKVIGVKADGDELTAKAVILAEGVNPILGEQLGMVKPKVSADAMAVGAKELIELPESVIKDRFNLKDDEGAAWLFAGSPSNGLMGGGFIYTNRNSISLGIVCGLHGIGESDKSVPQMLEDFKNHSLIKPLIEGGKLLEYSGHVVPEAGLNMVPKLVDHGVLITGDAAGFCLNVGYTVRGMDLAIASGEAAAKAVLAARAQQDFSAQGLSSYQSLLEESFLMKDMKLYKQLPAFMETPRIFNQYPKMVADIMHEMFIIDGTPAQPLRKTLLKHCKEVGFMNLIKDGYKGVTSI” reads “not soluble”; that for “KKEKSPKGKSSISPQARAFLEEVFRRKQSLNSKEKEEVAKKCGITPLQVRVWFINKRMRSK”, “soluble”; that for “MGRINELRMISRVAQMYFSEHKRQAEIAQHLNLSQATVSRMLKRAEAEGIVRTSIIPPPGTYSDLEAQLRERFDLPEAIVVDCSEDRDGAIMARIGEAAAHFLEVTLSQNEIIGVSSWSQTIFKMVENIHPLKGAKARYIVQTLGGMGDPSVQTHATQITTRLARLTEAEPKLLPVPGVATSREAKLLMLADPFVRETIDLFGSITLAIVGVGAVEPSELLARSGNIFSTKELADLAQAGAVGDISLRFFDKDGKPVKTPLDDRVIGLPLENLSNVDRVIALAGGLKKTEAIAGALRTGVIDVLVTDKFTAERLVGQET”, “soluble”.
The result for “MGSDKIHHHHHHMNPLNLIECLEQKERYTYNEGLIIDFILSHTERVLHMSIYELAEATNSSTSTIVRLCKKTETSGFKEFKIRLSRDLEIHYQAIRNVDANMPFLAQDSDLLIAKKIAQLTTETVQSTQQLLTEAMLNKSIDLLLTAENILAVGVSNSYIRLTDFQTKLLRIQLFIHLIPYQAEQFYLAINATKNDVAILVSYSGNTAEIVNEARIFAEGGTPIIAITSDLNSQLAKYATVILPIPNVEHADFKVSTFSSQLAIEYILNVLYSCIFSRNFDKNYTSQKNTPTSILKF” reads “not soluble”; that for “MSTVPISGRSQIMLVQDSEILSSSALQYKQFLSKVKISKNATSTAQVRRVGQKVAAATMLYLKQNGLGDMASQMKWEFNVVEDKAVNAFCMPGGKIVVYTGLLKLVGSDAELATVISHEVSHAVARHSNERISQEYLRQMGGNILGAAVSNKSAALQTVIGQAYGIGSQVLITLPYNRKQEYEADKIGLVFMAMAGYNPNAAITFWQKMAAQGNGRVEFLSTHPSDANRIAAIRQYMPEAMKHYKSKLEHHHHHH”, “soluble”.
“MGSDKIHHHHHHMSQTTLSTIPRLIGQVLSIYDVAPEAIFSAANIDITSDAQTRVPMENMATLWKLAVEATHNNELGLVAASLFQPVYLKSIGLAWLASENLEEGLKRYIASSQLINTEMQIELTERDGIDGEETLIQYQRRLTSSNTIKVHPCAIELGIGFFLKMFRLAAGKNIPATGVYFTFAIEENNKVYEEYFQCPVYGNQAVNGIAFSKALLTETLPTHDVELVEMNEVVINKHLDSMDNGETSSKVIKMINDLLPLGCPTEEVIAYKLHMSKRTLQRKLSVEKQSFLALLTSVRLMLAKEKLANKRVSVTEITYQLGYSSPSTFARAFKKHTQLSPLEYRNQVSSYSSCS”: the “soluble on expression in E. coli” value was “not soluble”.
Regarding “MAHHHHHHMRTSPLWRLRMTSRPLSLERVFVINLDRRPDRWAAIQAVCARAGLPAERTERVPAVEGSRLDVNAVHHCGFVSALGLRRLKEPPEHHIWGMDLNKAALGCALSHIHLWARIAALGKVSNISAEAPAATLPKQCFLVLEDDSTFADSDDNGSDSPAASPSLPFLDQLQRRMNSVPPDWELVYVSGLDTAKQCLHMQVAKGVARVPQYHRTTNAYLVTPQGARRLLATCVPLTFQLDTAMTMNVGYPPGVVGVAGAQTLPHVLDPVCYTLQPPLMQQAAQLDTDIQH”, the “soluble on expression in E. coli” value is “soluble”.
To “YMYKKYDILKGDKSERVLDRRFITNLCMNGVPMGLQYSITAIGSTILQAAVNTLGSTYVAAMTAGSKMFNFTCCPFDALGSTMATYAGQNVGAAKIKRLGQGVR” belongs “not soluble”; to “MGSDKIHHHHHHMKIVFLAPFGIRPKGTVVARMVPLAAELQALGHRVTIVAPPYTNPEDSGHTEEIRGVRLRNIRLAPGGAALSAPVMAWRMYRAAREEEPDLIHLFKPKGYGGLAAMLHLLTASRSSPLFLDTDDWEGRGGMNALHDYSPAQRLLFAFQEEWLPPRVRGVTVASRELEARIAAMGVAPERLLYLPNCVDDQPLGNGARVRARLGIDGNAPVVLLYTRFFEFSQEDLHRVFAGLSRKVPGIRFLVVGTGRNREEELLAAAARAEGFADSLHIAGWVEPDELPHWLAAGDVALYPFADTLVNRAKCPAKLTELMRAGVPVVADRVGQIAEYVEDGISGILCRPSAPDEMIARIAELLADPVRRRAVGTAGRERILSRFNWRDAAARLDAFYDNLTRRRNLA”, “not soluble”.
The result for “AHHHHHHGSRERGVAFFSGGKDGLYALYLAEKEGIEVPYLLTLKTSIGLSPHWENLSSLKALAENMGKKLLTFDMKYGSKALAEFISSLDVDYIIAGDVFLEDHLKWINLLAEKAGIKSFEPLWGKNTLELAKEMLNAGFKYSIIAVDKNKLEKTWLGYTFSSTRDIEIFIYENPTIDPLGEGGEFHTITLSSPLFKDEFTLEKISVEESERYWWMRFRVVGNDIKNVRVKGHNSRKDG” reads “not soluble”.
To “MGSDKIHHHHHHMEGKKTTQEEYQKCVNAVVDYINLHLGEEIDLKSLARISHFSPFYFHRIMKAFLGEPIGTFIVRTRTEAAARLLRYSSTSISDIAYRIGYASPSSFSKIFKQMYGISPTEYRNNKNYVIMKPAIIKPDLELKKEIRELPQRNVIYIRLFGDYKLNDYAGTWMHLIQFVKEQNLPMGDPSPLCIYHDDPKVTPTDKLRTDVCMLLPSNARPKGNVGFKQLPAGRYATFLYKGSYDQLQAVYDTIYGKYLPEMECTLSDEPSAERYLNDPSCTPPEELLTEIYIPIR” belongs “not soluble”.
For the sequence “MGSDKIHHHHHHMIVKEINPHFEDYVFNWEQTYQFLVGGYGSSKSYHTALKIVLKLLKEKRTALVIREVFDTHRDSTFALFQEVIEELGLTKAVASLSSPLQLRFHNGSRIMFKGMDNPAKLKSVHNISLIWIEECSEVKYEGFKELIGRLRHPELKLHMICTTNPVGTSNWTYRHFFRDERKKRFVLDDSELYEKRTIVKGDTYYHHSTANDNLFLPESYVKQLDGLKEYDPDLYRIARKGRFGVNGIRVLPQFEVLPHDQVKKCIAAISKPIFRTGMDFGFEESYNAVVRLAVDPEKKYLYIYWEYYQNKMTDDRTAEELREFIETQELIKADSAEPKSIQYFRQQGFRMVGARKFPGSRLQYTKKVKRFKKIFCSDRCENVIYELETLTYAKDKNGALIEDEFTIDPHTLSAIWYALDDYEVADMKETAHKRMRPNRERRRS”, the “soluble on expression in E. coli” value is “not soluble”.
On to “MTTYTSIANVIKERRSVRTFTDKAVEKDLLIELLNDATWAPNHKHREPWNCKLYIGEGRKKLVDAVLNSFTEEERAKRGKILSDRFLSTPAQIVVYMNEDPRQIQRDEDYAATCAFMQNFQLLAWERGLGCVWKSGGLNYNPLFIEGIGLTRGQRIVGILHIGYFDKAPEGKARTPITEKMEIIEG”, for which the “soluble on expression in E. coli” value is listed as “soluble”.
To “MSLTNTTKIVFLGASSASFGLSMFRDLFASPVLAGSTLTLVGRNPETLGRMTELAKLMNARSGAGLIIEQTTDRRAALDGAGFVINATAIDRNRLWKQDFEVPKKHGIRHTLGENGGPGGLFFTLRTLPLVFDFIRDIEELCPTALFLNYSNPESRIILALGRYTKVRHIGLCHGIFMGRDAVAYIMQMPREEIEVWGAGLNHFQCLTEIRHRDTGEDLYPRFRAAEQSFDPDAWRFTRRLYRAFGYWLTCSDDHLGEYLPYGWEAGEKGYDFDQDERWRGEFLTQLNGVLGGTMPIPQWWTEPSGERGAAVIAAMLHNQKRFIESGIVINRGVIPNLPAELAVEVPVTVDAAGVHPVSLGPLPDPIAKLMLMQASVQQLAVEAAVHASKELALQALLIDPVVNSAVAAEKILDELWEINRPYIRKEGHHHHHH” belongs “not soluble”; to “GPGSMVEYKSAAAIAQALFTTHGKDSTTFNRLLRDRIGKRGDRFTEDHPDTFLYIERSKNANVVAYTARFVDAETKKPVPSGVGRDCIIKHDGPVHAYFITLDPQQMEKLRAKGRTSLIDDLNFVQRKMAYGCSGKSFDVASASRECDNPADFKRWMSAFDPYTLSYVALAKYPTLLLTLKPVKDSNGEENDTAVALIAVIGGELSVVKKIYVSSTEPKHFYELPTVNYIEVFGVSVDKGSDTYEKKAP”, “not soluble”.
